{"source": "paper PMC9686918", "origin": "cited, not measured here", "target": "myeloperoxidase (Homo sapiens) (UniProt P05164)", "sequence (P05164 165-273)": "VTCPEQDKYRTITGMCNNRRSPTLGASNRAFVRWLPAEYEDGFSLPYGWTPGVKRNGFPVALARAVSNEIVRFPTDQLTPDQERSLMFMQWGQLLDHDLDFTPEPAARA"}
{"substance": "human serum albumin (from UniProt P02768)", "values": [{"measurement": "Kd", "value": 20, "unit": "µM"}]}
